Data: paper PMC12098869, “An mRNA-display derived cyclic peptide scaffold reveals the substrate binding interactions of an N-terminal cysteine oxidase” (Nature Communications, 2025)
Values joined by “and” are separate entries in the source; they are usually repeats but may differ in a detail not shown here. Equal values may be shown once. Where a SMILES comes first, the peptide text is derived from it. Bridges are numbered along the chain shown (N, C = ends). Where no end group is shown, it is not given here. [ ]: non-standard residue; d: D form.

Columns and labels:
[1] = target: 2-aminoethanethiol dioxygenase (ADO), full-length human, N-terminally His-tagged and biotinylated (pQE80L-Navi-ADO) (human) (UniProt Q96SZ5); test: SPR; biotinylated ADO or ADO mutant immobilised on a Biotin CAP chip (~2500-3000 RU), substrate peptide injected; Biacore T200, 4 °C; 20 mM HEPES pH 7.5, 500 mM NaCl, 10 mM DTT, 0.1% tween-20; 50 µL/minute; multi-cycle or single-cycle mode not given; each cell is one of three independent measurements
[2] = target: ADO-D206N, N-terminally His-tagged and biotinylated (human) (UniProt Q96SZ5); test: as above
ADO-D206N = target: T1, ADO-D206N (Homo sapiens, UniProt Q96SZ5, D206N); test: SPR binding of substrate peptides (native and oxidised) to ADO variant; conditions: up to 100 μM
T1 construct: Full-length human ADO (Uniprot ID: Q96SZ5) was cloned; made in house; host or cells: E. coli Rosetta2(DE3)
T1 sequence (Q96SZ5 1-270 D206N): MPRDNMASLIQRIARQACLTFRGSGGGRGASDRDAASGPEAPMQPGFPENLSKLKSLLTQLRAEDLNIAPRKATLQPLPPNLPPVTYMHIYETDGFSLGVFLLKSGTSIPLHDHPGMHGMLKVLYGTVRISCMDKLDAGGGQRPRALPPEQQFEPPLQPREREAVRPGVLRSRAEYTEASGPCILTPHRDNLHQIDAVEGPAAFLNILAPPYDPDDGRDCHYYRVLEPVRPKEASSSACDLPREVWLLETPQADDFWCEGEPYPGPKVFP
Text: (§1) Having verified the accuracy of the substrate analogue-bound crystal structures using MD simulations, key active site residues were mutated to assess their impact on binding and activity using SPR and LCMS. They were chosen based on their proximity to the substrate moieties and their conservation across species, including plants, where NCOs are called plant cysteine oxidases (PCOs; Fig. 5)[9],[10]. Two representative substrates, RGS5_2-15 and IL32_2-15 (a synthetic peptide corresponding to the methionine excised N-terminus of IL32, residues 2–15), were tested to compare interactions with different amino acid sequences.
ADO cannot bind oxidised peptide or protein sequences (i.e. those bearing Nt-Cys sulfinic acid/sulfinate)[36]. To explore whether ADO-D206 plays a role in product release through protonation or charge repulsion, the binding of oxidised RGS5_2-15 and IL32_2-15 to ADO-D206N was monitored by SPR (Supplementary Fig. 22). […] Given its position in the active site (and the fact that many ADO-D206 variants bind substrate), this implies that ADO-D206 contributes to ADO activity through an interaction with O2 during turnover.
SPR measurements were made using a Biacore T200 (Cytiva) instrument and data were analysed using the Biacore Insight Evaluation Software. […]

ADO-I109A [3] = target: T2, ADO-I109A (Homo sapiens, UniProt Q96SZ5, I109A); test: SPR binding of substrate peptides to ADO variant
T2 construct: Full-length human ADO (Uniprot ID: Q96SZ5) was cloned; made in house; host or cells: E. coli Rosetta2(DE3)
Text: as §1
(§2) SPR measurements were made using a Biacore T200 (Cytiva) instrument and data were analysed using the Biacore Insight Evaluation Software. Biotinylated-ADO was immobilised on a Biotin CAP chip (Cytiva) with a target density of ∼2500–3000 RU and peptide/protein substrates were injected over the chip. Experiments were conducted at 4 °C using both multi-cycle (fit using the equilibrium steady state affinity 1:1 binding model) and single-cycle kinetics mode (fit using a 1:1 binding model). A buffer comprising 20 mM HEPES pH 7.5, 500 mM NaCl, 10 mM DTT, and 0.1% (v/v) tween-20 was used as the running buffer at a flow rate of 50 μL/minute.
(§3) Supplementary Figure 20. SPR analysis of ADO variants with RGS5 peptide. (Left) Representative SPR sensorgram for the titration of RGS52-15 with amino acid substituted ADO. (Right) Fits of the equilibrium responses from the sensorgram in the left panels to a 1:1 binding model. The Kᴅ values are shown (Kᴅ given as the geometric mean of a minimum of three independent SPR measurements (n=3) with standard error). […] The […]
(§4) sensorgram is shown in red and the fit to the data is shown in black. The concentrations of RGS52-15 used in the titration are 25.6 nM, 64 nM, 160 nM, 400 nM, 1000 nM. The Kᴅ value is shown (Kᴅ given as the geometric mean of a minimum of three independent SPR measurements). Source data are provided as Source Data file.
(§5) (1 picture or pasted object on this page, not shown here)
(§6) Supplementary Figure 21. SPR analysis of ADO variants with IL32 peptide. (Left) Representative SPR sensorgram for the titration of IL322-15 with amino acid substituted ADO. (Right) Fits of the equilibrium responses from the sensorgram in the left […]
(§7) sensorgram is shown in red and the fit to the data is shown in black. The concentrations of IL322-15 used in the titration are 25.6 nM, 64 nM, 160 nM, 400 nM, 1000 nM. The Kᴅ value is shown (Kᴅ given as the geometric mean of a minimum of three independent

ADO-Y212A = target: T3, ADO-Y212A (Homo sapiens, UniProt Q96SZ5, Y212A); test: SPR binding of substrate peptides to ADO variant
T3 construct: Full-length human ADO (Uniprot ID: Q96SZ5) was cloned; made in house; host or cells: E. coli Rosetta2(DE3)
Text: as §1, §2, §3, §4, §5, §6, §7

ADO-D206A = test: SPR binding of substrate peptides to ADO variant; parameters: species or system human
Text: as §1, §2
Supplementary Figure 20. SPR analysis of ADO variants with RGS5 peptide. […]

ADO-Y87F = target: T4, ADO-Y87F (Homo sapiens, UniProt Q96SZ5, Y87F); test: SPR binding of substrate peptides to ADO variant
T4 construct: Full-length human ADO (Uniprot ID: Q96SZ5) was cloned; made in house; host or cells: E. coli Rosetta2(DE3)
Text: as §1, §2, §3, §4, §5, §6, §7

[4] = target: 2-aminoethanethiol dioxygenase (ADO), wild type, biotinylated (pQE80L-Navi-ADO) (human); test: SPR; single-cycle kinetics (SCK), 1:1 binding model; biotinylated ADO or variant immobilised on a Biotin CAP chip, peptide injected at 25.6, 64, 160, 400, 1000 nM; 4 °C; 20 mM HEPES pH 7.5, 500 mM NaCl, 10 mM DTT, 0.1% (v/v) tween-20; 50 μL/minute
[5] = target: T5, 2-aminoethanethiol dioxygenase (ADO), full-length human, N-terminally His-tagged and biotinylated … (human, UniProt Q96SZ5 1-270, biotin (biotinylated during expression, 0.2 mM biotin added)); test: SPR; single-cycle kinetics (1:1 binding model); biotinylated ADO immobilised on a Biotin CAP chip (~2500-3000 RU), cyclic peptide injected; Biacore T200, 4 °C; 20 mM HEPES pH 7.5, 500 mM NaCl, 10 mM DTT, 0.1% tween-20; 50 µL/minute; each cell is one of three independent measurements; conditions: both partners purified
T5 construct: 2-aminoethanethiol dioxygenase (ADO), human, UniProt Q96SZ5, full length; Immobilised through its biotin on a Biotin CAP chip for SPR; also called wild type ADO; Biotinylated-ADO; source: E. coli Rosetta2(DE3), purified (Ni-NTA, SEC); not shown: biotinylation tag (from the vector pQE80L-Navi), N-terminal, kept
T5 sequence (looked up): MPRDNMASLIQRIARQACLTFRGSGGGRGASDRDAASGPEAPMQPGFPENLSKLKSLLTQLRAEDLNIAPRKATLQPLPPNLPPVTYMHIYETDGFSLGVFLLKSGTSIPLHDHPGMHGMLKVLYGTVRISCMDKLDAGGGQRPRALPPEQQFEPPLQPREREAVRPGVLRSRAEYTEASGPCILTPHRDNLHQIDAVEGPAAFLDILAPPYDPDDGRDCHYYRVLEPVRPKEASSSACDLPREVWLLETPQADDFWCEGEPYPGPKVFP

ADO-I109A [6] = target: T6, ADO-I109A (human, UniProt Q96SZ5 1-270, I109A, biotin); test: SPR; biotinylated ADO (wild type or mutant) immobilised on a Biotin CAP chip, substrate peptides injected; 4 °C; 20 mM HEPES pH 7.5, 500 mM NaCl, 10 mM DTT, 0.1% tween-20; multi-cycle or single-cycle mode not given; conditions: both partners purified
T6 construct: 2-aminoethanethiol dioxygenase (ADO), human, UniProt Q96SZ5, full length; Made by site-directed mutagenesis of the SPR construct; source: E. coli Rosetta2(DE3), purified (Ni-NTA, SEC); not shown: biotinylation tag (from the vector pQE80L-Navi), N-terminal, kept
T6 sequence (looked up): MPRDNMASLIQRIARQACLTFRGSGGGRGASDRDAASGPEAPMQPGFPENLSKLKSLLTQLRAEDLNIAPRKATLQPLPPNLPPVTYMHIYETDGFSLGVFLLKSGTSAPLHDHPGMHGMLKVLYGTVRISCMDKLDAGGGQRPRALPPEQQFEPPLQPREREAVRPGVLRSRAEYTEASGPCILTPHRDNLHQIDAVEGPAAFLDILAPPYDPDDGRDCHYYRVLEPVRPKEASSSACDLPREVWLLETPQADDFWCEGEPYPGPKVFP

T3 sequence (Q96SZ5 whole entry Y212A): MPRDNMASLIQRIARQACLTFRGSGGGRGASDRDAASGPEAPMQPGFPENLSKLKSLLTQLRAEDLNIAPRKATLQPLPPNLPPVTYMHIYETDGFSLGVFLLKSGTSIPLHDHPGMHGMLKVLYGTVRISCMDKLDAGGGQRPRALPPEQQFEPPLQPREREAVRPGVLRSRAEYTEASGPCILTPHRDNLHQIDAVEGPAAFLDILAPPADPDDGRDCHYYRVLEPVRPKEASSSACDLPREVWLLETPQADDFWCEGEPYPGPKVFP
T4 sequence (Q96SZ5 whole entry Y87F): as the sequence (Q96SZ5 whole entry Y212A) above, with Y87F, A212Y counted along it

## RGS5(2-15), synthetic peptide corresponding to the methionine excised N-terminus of RGS5, residues 2 to 15 (from UniProt O15539 2-15)
[1]
  Kd: 609 nM and 637 nM and 675 nM
[2]
  Kd: 149 nM and 155 nM and 152 nM

## IL32(2-15), synthetic peptide corresponding to the methionine excised N-terminus of IL32, residues 2-15 (from UniProt P24001 2-15)
[1]
  Kd: 372 nM and 449 nM and 573 nM
[2]
  Kd: 68.4 nM and 73.3 nM and 67.5 nM

## oxidised IL32_2-15: IL32_2-15 bearing Nt-Cys sulfinic acid/sulfinate, obtained through pre-incubation with ADO ([Cys sulfinic acid]FPKVLSDDMKKLK)
ADO-D206N
  binding of oxidised peptide to ADO-D206N (in words): No association was observed

## CSCC[C@H](NC(=O)[C@H](CC(=O)O)NC(=O)[C@H](CC(=O)O)NC(=O)[C@H](CO)NC(=O)[C@H](CC(C)C)NC(=O)[C@@H](NC(=O)[C@H](CCCCN)NC(=O)[C@@H]1CCCN1C(=O)[C@H](Cc1ccccc1)NC(=O)[C@@H](N)CS)C(C)C)C(=O)N[C@@H](CCCCN)C(=O)N[C@@H](CCCCN)C(=O)N[C@@H](CC(C)C)C(=O)N[C@@H](CCCCN)C(N)=O [14-mer IL32] (H-CFPKVLSDDMKKLK-NH2; C-terminus assumed)
ADO-I109A [3]
  fold increase in KD relative to wild type ADO: 35 fold
ADO-Y212A; replicate 2
  KD: 24700 nM
ADO-Y212A; replicate 3
  KD: 24700 nM
ADO-D206A
  binding to ADO-D206A (in words): no binding

## oxidised RGS5_2-15: RGS5_2-15 bearing Nt-Cys sulfinic acid/sulfinate, obtained through pre-incubation with ADO ([Cys sulfinic acid]KGLAALPHSCLER)
ADO-D206N
  binding of oxidised peptide to ADO-D206N (in words): No association was observed

## CC(C)C[C@H](NC(=O)CNC(=O)[C@H](CCCCN)NC(=O)[C@@H](N)CS)C(=O)N[C@@H](C)C(=O)N[C@@H](C)C(=O)N[C@@H](CC(C)C)C(=O)N1CCC[C@H]1C(=O)N[C@@H](Cc1c[nH]cn1)C(=O)N[C@@H](CO)C(=O)N[C@@H](CS)C(=O)N[C@@H](CC(C)C)C(=O)N[C@@H](CCC(=O)O)C(=O)N[C@@H](CCCNC(=N)N)C(N)=O [14-mer RGS5] (H-CKGLAALPHSCLER-NH2; C-terminus assumed)
ADO-I109A [3]
  fold increase in KD relative to wild type ADO: 2 fold
ADO-Y87F; replicate 1
  KD: 339 nM
ADO-Y87F; replicate 3
  KD: 339 nM
ADO-D206A
  binding to ADO-D206A (in words): no binding

B1: CP6-L8K-Cys (peptide)
peptide: {CH2CO}-YIVKTFWK(Cys)GSHRQC
modifications: thioether N-14
notes: the substitution L8K is to be applied, Cys on the sidechain amine of K8; Branched peptide: the Cys is not in the main chain; source: synthetic peptide
[4]
  Kd: 13 nM
[5]
  Kd: 11 nM and 13.1 nM and 13.7 nM

B2: CP6-L8K-Ser (peptide)
peptide: {CH2CO}-YIVKTFWK(Ser)GSHRQC
modifications: thioether N-14
notes: the substitution L8K is to be applied, Ser on the sidechain amine of K8; Branched peptide: the Ser is not in the main chain; also called CP-L8K-Ser; source: synthetic peptide
[4]
  Kd: 21 nM
[5]
  Kd: 17.2 nM and 20.6 nM and 26.8 nM

B3: RGS5_(2-15), synthetic peptide corresponding to the methionine excised N-terminus of RGS5, residues 2 to 15 (peptide, UniProt O15539 2-15, looked up)
peptide: CKGLAALPHSCLER
notes: RGS5, human, residues 2 to 15 (methionine excised N-terminus); peptide synthesis is in the supplementary methods; source: synthetic peptide
ADO-I109A [6]
  fold increase in KD relative to wild type ADO: 2 fold

B4: IL32_(2-15), synthetic peptide corresponding to the methionine excised N-terminus of IL32, residues 2-15 (peptide, UniProt P24001 2-15, looked up)
peptide: CFPKVLSDDMKKLK
notes: interleukin 32 (IL32), residues 2-15 (methionine excised N-terminus); peptide synthesis is in the supplementary methods; source: synthetic peptide
ADO-I109A [6]
  fold increase in KD relative to wild type ADO: 35 fold
